B1: Heat shock 70 kDa protein 4 (Homo sapiens), P34932 (parent)
chain: MSVVGIDLGFQSCYVAVARAGGIETIANEYSDRCTPACISFGPKNRSIGAAAKSQVISNAKNTVQGFKRFHGRAFSDPFVEAEKSNLAYDIVQLPTGLTGIKVTYMEEERNFTTEQVTAMLLSKLKETAESVLKKPVVDCVVSVPCFYTDAERRSVMDATQIAGLNCLRLMNETTAVALAYGIYKQDLPALEEKPRNVVFVDMGHSAYQVSVCAFNRGKLKVLATAFDTTLGGRKFDEVLVNHFCEEFGKKYKLDIKSKIRALLRLSQECEKLKKLMSANASDLPLSIECFMNDVDVSGTMNRGKFLEMCNDLLARVEPPLRSVLEQTKLKKEDIYAVEIVGGATRIPAVKEKISKFFGKELSTTLNADEAVTRGCALQCAILSPAFKVREFSITDVVPYPISLRWNSPAEEGSSDCEVFSKNHAAPFSKVLTFYRKEPFTLEAYYSSPQDLPYPDPAIAQFSVQKVTPQSDGSSSKVKVKVRVNVHGIFSVSSASLVEVHKSEENEEPMETDQNAKEEEKMQVDQEEPHVEEQQQQTPAENKAESEEMETSQAGSKDKKMDQPPQAKKAKVKTSTVDLPIENQLLWQIDREMLNLYIENEGKMIMQDKLEKERNDAKNAVEEYVYEMRDKLSGEYEKFVSEDDRNSFTLKLEDTENWLYEDGEDQPKQVYVDKLAELKNLGQPIKIRFQESEERPKLFEELGKQIQQYMKIISSFKNKEDQYDHLDAADMTKVEKSTNEAMEWMNNKLNLQNKQSLTMDPVVKSKEIEAKIKELTSTCSPIISKPKPKVEPPKEEQKNAEQNGPVDGQGDNPGPQAAEQGTDTAVPSDSDKKLPEMDID

Variants of: B1
Conditions: with hsp7c_human HSPA8, P11142
Sequence of hsp7c_human HSPA8, P11142 (P11142 whole entry, looked up): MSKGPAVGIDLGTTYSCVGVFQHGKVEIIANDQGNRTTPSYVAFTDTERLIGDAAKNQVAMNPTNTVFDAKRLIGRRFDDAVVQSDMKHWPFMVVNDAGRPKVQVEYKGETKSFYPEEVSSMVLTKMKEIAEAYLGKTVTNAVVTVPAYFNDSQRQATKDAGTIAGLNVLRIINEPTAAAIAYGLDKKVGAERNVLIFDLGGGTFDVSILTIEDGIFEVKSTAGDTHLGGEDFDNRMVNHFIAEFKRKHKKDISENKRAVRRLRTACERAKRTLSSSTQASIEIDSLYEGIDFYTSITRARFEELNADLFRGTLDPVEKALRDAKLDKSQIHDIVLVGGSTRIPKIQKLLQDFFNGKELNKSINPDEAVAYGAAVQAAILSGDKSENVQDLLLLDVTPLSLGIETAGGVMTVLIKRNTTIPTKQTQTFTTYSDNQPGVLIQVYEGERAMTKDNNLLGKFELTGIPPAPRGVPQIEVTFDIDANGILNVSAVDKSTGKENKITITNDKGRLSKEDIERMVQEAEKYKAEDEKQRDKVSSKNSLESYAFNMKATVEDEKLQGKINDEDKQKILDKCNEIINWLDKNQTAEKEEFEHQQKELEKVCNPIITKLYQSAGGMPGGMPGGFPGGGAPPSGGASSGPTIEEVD

effect of a mutation on the interaction | Variant
decreasing interaction | E622A
decreasing interaction | N619Y
